Reference: PMC4670726 (2015)

Assays:
Experiment in all cases: FP competition (Ki)
APBA2 = biological target: T1, APBA2 (Homo sapiens (Human), UniProt Q99767)
T1 chain: RHEARPKSLNLL

GAB3b = biological target: T2, GAB3b (Homo sapiens (Human), UniProt Q8WWW8)
T2 chain: KPQRKSRPPPLDLRNLS

DCX = biological target: T3, DCX (Mus musculus (Mouse), UniProt O88809)
T3 chain: SLRKHKVDLYLPLSL

IRS1 = biological target: T4, IRS1 (Homo sapiens (Human), UniProt P35568)
T4 chain: RLARPTRLSL

AAKG2 = biological target: T5, AAKG2 (Homo sapiens (Human), UniProt Q9UGJ0)
T5 chain: SQKRRSLRVHIP

MYO9B = biological target: T6, MYO9B (Homo sapiens (Human), UniProt Q13459)
T6 chain: LERPTSLALD

DOCK7 = biological target: T7, DOCK7 (Homo sapiens (Human), UniProt Q96N67)
T7 chain: RSAVRPASLNLNRSR

JAZF1 = biological target: T8, JAZF1 (Homo sapiens (Human), UniProt Q86VZ6)
T8 chain: SLKKKIQPKLSLTLS

RHDF1 = biological target: T9, RHDF1 (Homo sapiens (Human), UniProt Q96CC6)
T9 chain: SLQRKKPPWLKLDIPS

KSR2 = biological target: T10, KSR2 (Homo sapiens (Human), UniProt Q6VAB6)
T10 chain: KKKSKPLNLKI

CCNT2 = biological target: T11, CCNT2 (Homo sapiens (Human), UniProt O60583)
T11 chain: KKEKSGSLKLRIPIP

DOCK5 = biological target: T12, DOCK5 (Homo sapiens (Human), UniProt Q9H7D0)
T12 chain: KAQRPKSLQLM

PDE4B = biological target: T13, PDE4B (Homo sapiens (Human), UniProt Q07343)
T13 chain: EGDGISRPTTLPLTTLPS

B1: JNK1 (protein)
chain: DNNFYSVEIGDSTFTVLKRYQNLKPIGSGAQGIVCAAYDAILERNVAIKKLSRPFQNQTHAKRAYRELVLMKCVNHKNIIGLLNVFTPQKSLEEFQDVYIVMELMDANLCQVIQMELDHERMSYLLYQMLCGIKHLHSAGIIHRDLKPSNIVVKSDCTLKILDFGLARTAGTSFMMTPYVVTRYYRAPEVILGMGYKENVDLWSVGCIMGEMVCHKILFPGRDYIDQWNKVIEQLGTPCPEFMKKLQPTVRTYVENRPKYAGYSFEKLFPDVLFPADSEHNKLKASQARDLLSKMLVIDASKRISVDEALQHPYINVWYDPSEAEAPPPKIPDKQLDEREHTIEEWKELIYKEVMDLE
Question: How did the Kd (APBA2) turn out when B1 was run?
Answer: 10.8 µM

Question: And the Kd (GAB3b)?
Answer: 13.2 µM

Question: And the Kd (DCX)?
Answer: 16.7 µM

Question: What about the Kd (IRS1) of the same binder?
Answer: 3.5 µM

Question: And the Kd (AAKG2)?
Answer: > 100 µM

Question: What about the Kd (MYO9B) of the same binder?
Answer: 15.9 µM

Question: What about the Kd (DOCK7) of the same binder?
Answer: 7.3 µM

Question: What about the Kd (JAZF1) of the same binder?
Answer: > 100 µM

Question: What about the Kd (RHDF1) of the same binder?
Answer: > 100 µM

Question: And the Kd (KSR2)?
Answer: 24.7 µM

Question: And the Kd (CCNT2)?
Answer: > 100 µM

Question: And the Kd (DOCK5)?
Answer: 5.1 µM

Question: And the Kd (PDE4B)?
Answer: 16.4 µM
